{"source": "patent US20260139001A1", "biological_target": "SARS-CoV-2 Spike RBD, B.1.1.529/Omicron (SARS-CoV-2 Omicron B.1.1.529) (UniProt P0DTC2)", "data": [{"substance": "Ribosomally constructed Wuhan-NS (VHH72 V104UAG construct translated with NBDxK-tRNACUA)", "values": [{"measurement": "normalized tube fluorescence", "value": 0.09}]}]}
